B1: GOLPH3 (parent)
chain: FAPLLDEQYDLATKRVRQLLDLDP

Variants of: B1
Experiment: protein stability index of a GFP-peptide fusion (GPS, HEK-293T) (PSI 1-6); higher = more stable
Conditions: c terminus: a fixed tail appended
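Further: lentivirally expressed fusions sorted by FACS into six bins by GFP to DsRed ratio, PSI derived from sequencing read proportions per bin multiplied by bin number.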

Protein stability index: each site, then its substitutions
L22: R 2.26; M 2.58; F 2.61; A 3.04; G 2.58; E 3.16; Y 2.29; P 2.06; Q 2.5; H 2.55; I 2.45; N 2.46; V 2.2; S 2.29; W 1.83; D 2.75; K 2.27; C 1.95; T 2.21
D6: P 2.81; L 1.83; V 1.75; S 2.26; Y 2.03; E 2.22; W 1.88; G 1.45; K 2.4; H 1.48; T 1.76; F 1.49; M 2.25; I 1.46; Q 1.42; N 1.54
D21: A 1.47; H 1.55; P 1.48; Y 1.88; Q 2.1; N 2.12; L 2.1; G 2.29; F 3.68; S 1.95; I 1.45; T 1.9; E 2.08; V 2.79; M 1.85; W 2.22; R 1.55; K 1.64
Q8: D 2.96; H 2.04; K 1.75; Y 2.33; L 1.95; S 2.24; R 1.39; A 2.29; F 1.5; C 2.1; T 2.64; W 1.32; N 1.84; G 2.08; P 1.74; M 1.88; E 2.64
Q18: A 2.52; F 2.67; C 1.38; Y 1.74; N 2.2; L 2.52; K 2.18; E 2.06; I 2.34; S 2.11; D 2.43; M 2.02; W 2.36; T 2.21; H 2.47; V 2.99; P 2.04; R 1.44; G 2.08
R15: T 1.76; P 2.48; C 2.1; W 1.61; S 1.8; A 2.56; E 2.43; D 2.73; I 2.01; K 1.93; V 2.35; L 2.24; H 2.04; M 1.99; Q 2.11; F 2.06; G 1.74; Y 1.51; N 2.3
K14: L 3.14; Y 1.97; M 1.59; G 1.99; A 1.76; T 2.11; Q 1.88; P 2.29; N 2.02; R 2.24; C 2.29; D 2.94; W 2.28; I 1.64; S 2; F 1.17; H 1.99; E 2.14; V 1.84
P24: C 2.36; G 2.28; A 1.81; E 2.46; D 1.87; F 3.43
A12: F 1.74; T 2.3; H 2.43; R 2.04; C 1.57; P 2.04; M 2.8; I 1.43; S 2.36; G 2.12; V 1.88; N 2.47; D 2.72; L 1.82; E 2.66; Q 2.16; K 1.99
T13: H 2.18; Q 1.84; R 1.57; V 2.28; E 2.56; A 2.41; N 1.9; M 1.89; I 1.6; S 2.24; K 2.32; C 1.54; F 1.96; L 2.28; P 2.22; G 3.19; D 2.92; Y 1.28
E7: I 1.65; M 1.9; W 2.56; Q 2.66; N 1.91; P 2.12; Y 1.48; K 1.87; F 1.91; D 2.02; T 1.86; H 1.76; V 1.89; C 1.98; G 1.86; R 2.79; L 1.55; S 2.12; A 1.49
D10: T 1.56; W 3.11; Y 1.63; Q 1.46; I 1.88; E 2.36; V 1.27; N 1.59; S 2.03; L 1.72; P 2.4; C 2.54; H 1.58; G 2.15; R 2.23; F 2.69; M 2.24; K 1.98
L19: D 3.22; S 2.21; F 1.63; Q 2.24; V 2.33; N 1.89; G 2.26; W 2.27; M 1.78; E 2.58; T 2.61; A 2.7; K 2.14; I 2.46; R 1.65; C 1.49; Y 1.85; H 2.09; P 2.65
D23: N 2.85; M 1.53; Q 2.11; E 1.87; P 1.8; C 2.41; K 1.78; S 1.85; H 1.69; R 2.72; A 2.07; I 1.62; G 2.65; Y 2.12; V 1.6; L 2.01; W 3.32; T 1.94
Y9: R 2.2; V 1.24; P 2.59; T 2.45; G 2.24; D 2.98; W 2.06; I 2.26; N 2.57; C 2.9; L 2.15; H 2.49; F 2.75; A 2.9; Q 2.64; E 3.5; M 2.46; S 2.96; K 2.4
L20: M 2.3; C 2.27; P 3.2; E 2.76; H 1.98; R 1.91; Y 1.94; N 2.25; Q 2.24; F 1.83; S 2.53; W 2.11; T 2.27; A 2.92; V 1.94; D 2.34; G 2.42; K 2.59; I 2.59
L11: I 2.36; S 2.27; D 3.09; H 2.73; C 2.26; Y 2.51; M 3.03; E 3.48; G 2.38; W 2.82; T 2.28; P 2.91; V 2.21; N 2.28; F 1.94; Q 3.52; A 3.3; K 2.56
R17: N 2.83; E 2.41; H 1.87; T 2.11; P 2.45; M 2.27; D 3.1; A 2.37; V 2.03; S 2.61; Y 1.74; I 2.22; G 2.45; L 2.13; C 2.14; F 1.93; K 1.8; Q 2.77
V16: Y 2.58; A 2.12; T 2.59; N 2; L 1.51; E 3.32; I 2.19; P 2.45; H 1.65; K 1.54; S 1.74; G 2.75; Q 2.4; R 1.82; D 2.02; M 1.96; W 1.37; C 2.09

Source: the supplement of paper PMC10567573
